Assay results taken from publication PMC4987244 (Cancer research, 2016).
Read-outs that look alike come from different tables or passages of the source.

T1: HA-tagged PRL1 expressed in HEK293 cells, Q93096
T1 chain: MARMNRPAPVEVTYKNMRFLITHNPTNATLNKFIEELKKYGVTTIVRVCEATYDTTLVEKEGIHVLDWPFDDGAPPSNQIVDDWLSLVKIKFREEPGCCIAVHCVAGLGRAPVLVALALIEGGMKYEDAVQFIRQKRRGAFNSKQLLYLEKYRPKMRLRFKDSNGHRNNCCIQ


Key:
[1] = target: the molecule itself
[2] = target: T1, HA-tagged PRL1 expressed in HEK293 …; assay: cross-linking; conditions: remark: other sources report otherwise
cross-linking = target: the molecule itself; assay: cross-linking

Binder	stoichiometry N (cross-linking)	further results
PRL2 (enzyme, UniProt Q12974 1-167, looked up) MNRPAPVEISYENMRFLITHNPTNATLNKFTEELKKYGVTTLVRVCDATYDKAPVEKEGIHVLDWPFDDGAPPPNQIVDDWLNLLKTKFREEPGCCVAVHCVAGLGRAPVLVALALIECGMKYEDAVQFIRQKRRGAFNSKQLLYLEKYRPKMRLRFRDTNGHCCVQ	–	stoichiometry N [1]: 3
HA-tagged PRL1 expressed in HEK293 cells, Q93096 1-173 (enzyme) MARMNRPAPVEVTYKNMRFLITHNPTNATLNKFIEELKKYGVTTIVRVCEATYDTTLVEKEGIHVLDWPFDDGAPPSNQIVDDWLSLVKIKFREEPGCCIAVHCVAGLGRAPVLVALALIEGGMKYEDAVQFIRQKRRGAFNSKQLLYLEKYRPKMRLRFKDSNGHRNNCCIQ	–	stoichiometry N [2]: 3
PRL1 (phosphatase of regenerating liver 1), recombinant wild type (enzyme) MNRPAPVEVTYKNMRFLITHNPTNATLNKFIEELKKYGVTTIVRVCEATYDTTLVEKEGIHVLDWPFDDGAPPSNQIVDDWLSLVKIKFREEPGCCIAVHCVAGLGRAPVLVALALIEGGMKYEDAVQFIRQKRRGAFNSKQLLYLEKYRPKMRLRF	3	–
PRL1/Y14A, recombinant (enzyme) MNRPAPVEVTAKNMRFLITHNPTNATLNKFIEELKKYGVTTIVRVCEATYDTTLVEKEGIHVLDWPFDDGAPPSNQIVDDWLSLVKIKFREEPGCCIAVHCVAGLGRAPVLVALALIEGGMKYEDAVQFIRQKRRGAFNSKQLLYLEKYRPKMRLRF	3	–
PRL1/F132A, recombinant (enzyme) MNRPAPVEVTYKNMRFLITHNPTNATLNKFIEELKKYGVTTIVRVCEATYDTTLVEKEGIHVLDWPFDDGAPPSNQIVDDWLSLVKIKFREEPGCCIAVHCVAGLGRAPVLVALALIEGGMKYEDAVQAIRQKRRGAFNSKQLLYLEKYRPKMRLRF	3	–
